Bridges are numbered along the chain shown (N, C = ends). Primed or numbered codes have the meaning given here. Where no end group is shown, it is not given here. [ ]: non-standard residue; d: D form. The star is where a group is joined. DOTA = O=C(O)CN1CCN(CC(=O)O)CCN(CC(=O)*)CCN(CC(=O)O)CC1; Biotin = O=C1N[C@H]2[C@H](CS[C@H]2CCCCC(=O)*)N1; hydroxy‑norleucine = hydroxy-norleucine residue; Lys(Me3) = C[N+](C)(C)CCCC[C@H](N)C(=O)O; Arg(Me2s) = CN=C(NC)NCCC[C@H](N)C(=O)O; Cit = NC(=O)NCCC[C@H](N)C(=O)O; PEG4″ = 4(ethylene glycol); PEG4′ = not defined here
Key:
Human Nectin-4 [1] = target: T1, Human Nectin-4 (human, UniProt Q96NY8 32-349, limits assumed); test: Table 2B (DELFIA or SPR)
T1 construct: Protein immobilised on the SPR chip; also called target protein
T1 sequence: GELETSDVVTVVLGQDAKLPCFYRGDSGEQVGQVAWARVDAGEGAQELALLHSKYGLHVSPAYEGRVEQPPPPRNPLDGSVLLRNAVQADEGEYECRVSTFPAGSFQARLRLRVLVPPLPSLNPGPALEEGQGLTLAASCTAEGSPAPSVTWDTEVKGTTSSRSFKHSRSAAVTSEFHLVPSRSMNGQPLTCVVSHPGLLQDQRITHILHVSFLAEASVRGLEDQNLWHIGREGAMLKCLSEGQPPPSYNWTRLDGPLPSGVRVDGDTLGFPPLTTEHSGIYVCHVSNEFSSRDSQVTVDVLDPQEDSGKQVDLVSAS

Human Nectin-4 [2] = target: T1, Human Nectin-4; test: SPR, Biacore T200, target immobilised, 1:1 model
Description: Surface plasmon resonance (SPR) analyses were performed using Biacore T200 (GE Healthcare). Target protein (“ligand”) was immobilized to a CM5 Series S sensor chip (Cytiva) using amine-coupling chemistry. Running buffer was 0.05% surfactant P20 in HEPES buffered saline (HBS-P), pH 7.4 (Cytiva). Immobilization was performed at 25° C. Carboxyl groups in each flow cell were activated using a 1:1 mixture of 0.4 M 1-ethyl-3-(3-dimethylaminopropyl)-carbodiimide in water (EDC) and 0.1 M N-hydroxysuccinimide in water (NHS) for 7 minutes. The ligand was prepared in 10 mM sodium acetate pH 5 (Cytiva). Pulsatile injections were made to target a specific immobilization level. Any remaining amine-reactive esters on the chip surface were blocked with a 7-minute injection of 1 M ethanolamine, pH 8.5. Three 10-second pulses of 50 mM sodium hydroxide were then made to remove any unbound ligand. Reference cells were modified using amine coupling chemistry, omitting ligand injection.
Increase in signal (RU) is proportional to an increase in binding events between the analyte and ligand surface. The injection was then stopped, and dissociation was measured. […] Measured association (kₐ, 1/Ms⁻¹) and dissociation (kd, s⁻¹) were fit to a 1:1 binding model to calculate a dissociation equilibrium constant, KD(M) for each analyte.

[3] = target: T2, Human Nectin-4 expressed on cells (human, UniProt Q96NY8 32-510); test: radioligand binding, 177Lu-labelled compound, HT-1376 cells
T2 construct: Endogenous on HT-1376 cells; also called endogenous Nectin-4 on HT-1376 cells; cell surface Nectin-4
T2 sequence: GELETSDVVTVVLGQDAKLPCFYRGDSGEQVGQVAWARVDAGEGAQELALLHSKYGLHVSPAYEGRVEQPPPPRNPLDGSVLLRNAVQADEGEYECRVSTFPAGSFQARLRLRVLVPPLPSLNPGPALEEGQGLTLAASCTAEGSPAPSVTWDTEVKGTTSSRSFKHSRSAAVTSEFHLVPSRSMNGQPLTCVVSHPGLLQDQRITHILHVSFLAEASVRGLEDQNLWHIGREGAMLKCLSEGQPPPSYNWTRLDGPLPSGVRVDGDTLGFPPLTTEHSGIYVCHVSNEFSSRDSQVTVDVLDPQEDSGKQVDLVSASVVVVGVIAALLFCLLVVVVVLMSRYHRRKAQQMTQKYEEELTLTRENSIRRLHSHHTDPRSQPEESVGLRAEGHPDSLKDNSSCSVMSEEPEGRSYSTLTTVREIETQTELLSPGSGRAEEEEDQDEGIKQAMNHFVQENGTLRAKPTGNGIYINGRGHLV
Description: On the day of assay, culture medium was removed and PBS was added to cells. Association kinetics were measured at three concentrations of radioligand, and this was performed by the addition of lutetium-177 radioconjugates to cells at various time points from 1 to 60 minutes.

[4] = target: T2, Human Nectin-4 expressed on cells; test: DELFIA whole-cell competition against a europium-chelate miniprotein
Description: A whole cell binding assay was used to estimate the equilibrium binding affinity (KD) or binding inhibition constant (Kᵢ) of miniprotein ligands to cells expressing a target of interest. Cells were dispensed into a 384-well plate and incubated at 37° C. in 5% CO₂ overnight. The next day cells were gently washed once in assay buffer prior to addition of europium chelated ligand. […] For Kᵢ determination, a single concentration (KD equivalent concentration) of europium-chelate miniprotein was added to each well followed immediately by the addition of unconjugated competing ligand over 12 different concentrations ranging from 100 times below and above expected Kᵢ values as before. […] Cells were then washed three times at room temperature with 1×PBS followed by the addition of 2 M HCl and incubated for two h at 37° C. Following this step, 2 M NaOH and fluorescent inducer solution were added to each well and incubated for 30 minutes at room temperature according to the manufacturer's protocol (Perkin-ELMER DELFIA assay). Plates were read on an Envision plate reader and a curve-fitting model was applied to estimate KD and Kᵢ values using GraphPad Prism software.

Ac-CEYDEQFFTALARLRGGDICYYIQEQFATVPGLCIEEILDQLGC-NH2 (designed binder, disulfide 1-34, 20-44) [C128] showed a Kd (Human Nectin-4 [1]) of 10.1 nM.

With Ac-CEYDEQFFTALSSLRGGDICYYIQEQFANVPGICIEEILDNLGC (designed binder, disulfide 1-34, 20-44) [C136] the Kd (Human Nectin-4 [1]) was 36.5 nM.

With {Biotin-PEG4″}-CEYDEQFFTALKRLRGGDICYYISAQFNTLPDLCIEEILENLGC-OH (designed binder, disulfide 1-34, 20-44) [C103] the Kd (Human Nectin-4 [1]) was 6.6 nM.

In the case of {Biotin-PEG4″}-CEYDEEFFTALKKLRGGDICYYIQQAFNYLPGICIEEILDNLGC (designed binder, disulfide 1-34, 20-44) [C107], the Kd (Human Nectin-4 [1]) is reported as 3.38 nM.

With {Biotin-PEG4″}-CDYDEQFFTALA[Cit]LRGGDICEYIQA[Lys(Me3)]FQYLPGLCIEEILDNLGCS-OH (designed binder, disulfide 1-34, 20-44) [C259] the Kd (Human Nectin-4 [2]) was 0.226 nM.

{Biotin-PEG4″}-CEYDEQFFTALSSLRGGDICYYIQEQFANVPGICIEEILDNLGCS (designed binder, disulfide 1-34, 20-44) [C139] showed a Kd (Human Nectin-4 [1]) of 25.2 nM.

Ac-CEYDEQFFTALKRLRGGDICYYISAQFNTLPDLCIEEILENLGC-OH (designed binder, disulfide 1-34, 20-44) [C100] gave a Kd (Human Nectin-4 [1]) of 4.8 nM.

{DOTA-PEG4″}-CEYDEEFFTALKRLRGGDICYYIQASFQYLPGLCIEEILDNLGCS (designed binder, disulfide 1-34, 20-44; also: 177Lu-labelled in radioligand assay) [C109] showed a Kd [3] of 8.72 nM.

In the case of {Biotin-PEG4″}-CEYDEEFFTALARLRGADICQYIQA[Lys(Me3)]FQYLPALCIEEILDNLGCS-OH (designed binder, disulfide 1-34, 20-44) [C252], the Ki [4] is reported as 0.76 nM.

In the case of {Biotin-PEG4″}-CEYDEQFFTALARLRGGDICEYIQA[Arg(Me2s)]FQYLPGLCIEEILDNLGCS (designed binder, disulfide 1-34, 20-44) [C267], the Kd (Human Nectin-4 [2]) is reported as 0.586 nM and the Ki [4] is reported as 0.76 nM.

With {Biotin-PEG4″}-CEYDEQFFTALARLRGADICEYIQA[Lys(Me3)]FQYLPGLCIEEILDNLGCS-OH (designed binder, disulfide 1-34, 20-44) [C262] the Ki [4] was 1.04 nM.

{Biotin-PEG4″}-CEYDEQFFTALARLRGADICEYIQARFQYLPGLCIEEILDNLGCS-OH (designed binder, disulfide 1-34, 20-44) [C280] was tested, and the Ki [4] was 0.54 nM.

For {Biotin-PEG4″}-CDYDEQFFTALKRLRGGDICEYIQA[Lys(Me3)]FQYLPGECIEEILDNLGCS-OH (designed binder, disulfide 1-34, 20-44) [C255], the Ki [4] was 0.66 nM.

{DOTA-PEG4″}-CEYDEEFFTALKRLRGGDICYYIQAKFQYLPKLCIEEILDNLGCS (designed binder, disulfide 1-34, 20-44; also: 177Lu-labelled in the radioligand assay) [C117] was tested, and the Kd [3] was 2.64 nM.

Work on {Biotin-PEG4″}-CEYDEQFFTALARLRGGDICEYIQARFQYLPGLCIEEILDNLGCS (designed binder, disulfide 1-34, 20-44) [C264] yielded a Kd (Human Nectin-4 [2]) of 0.476 nM and a Ki [4] of 0.53 nM.

{Biotin-PEG4″}-CDYDEQFFTALKRLRGADICEYIQA[Lys(Me3)]FQYLPGECIEEILDNLGCS-OH (designed binder, disulfide 1-34, 20-44) [C257] showed a Ki [4] of 0.66 nM.

{DOTA-PEG4′}-CEYDEEFFTALKRLRGGDICYYIKKKFKKVPKLCIEEILDKLGC-NH2 (designed binder, cysteine pairing not given here; also: 177Lu label on DOTA) [C215] gave a Kd [3] of 5.01 nM.

For {DOTA-PEG4″}-CEYDEEFFTALKRLRGGDICYYIKKKFDYLPKLCIEEILDNLGC-NH2 (designed binder, disulfide 1-34, 20-44; also: 177Lu-labelled in the radioligand assay) [C214], the Kd [3] was 3.03 nM.

Binder {Biotin-PEG4″}-CEYDEEFFTALA[Cit]LRGDDICSYIQA[hydroxy‑norleucine]FQYLPGLCIEEILDNLGCS-OH (designed binder, disulfide 1-34, 20-44) [C170] has a Kd (Human Nectin-4 [1]) of 8.8 nM.

With {Biotin-PEG4″}-CEYDEEFFTALARLRGGDICYYIQA[hydroxy‑norleucine]FQYLPGLCIEEILDNLGCS-OH (designed binder, disulfide 1-34, 20-44) [C173] the Kd (Human Nectin-4 [1]) was 5 nM.

With {Biotin-PEG4″}-CEYDEQFFTALARLRGGDICYYIQEQFATVPGLCIEEILDQLGCS-OH (designed binder, disulfide 1-34, 20-44) [C131] the Kd (Human Nectin-4 [1]) was 12.4 nM.

Ac-CEYDEQFFTALKALRGGDICYYIQASFNYLPDLCIEEILDNLGC-NH2 (designed binder, disulfide 1-34, 20-44) [C112] gave a Kd (Human Nectin-4 [1]) of 6.24 nM.

With Ac-CEYDEEFFTALKKLRGGDICYYIQQAFNYLPGICIEEILDNLGC-OH (designed binder, disulfide 1-34, 20-44) [C104] the Kd (Human Nectin-4 [1]) was 3.7 nM.

Ac-CEYDEEFFTALSRLRGGDICYYIQQAFQYLPGLCIEEILDNLGC-NH2 (designed binder, disulfide 1-34, 20-44) [C132] was tested, and the Kd (Human Nectin-4 [1]) was 30.1 nM.

Work on {Biotin-PEG4″}-CEYDEEFFTALARLRGDDICSYIQAKFQYLPGLCIEEILDNLGCS-OH (designed binder, disulfide 1-34, 20-44) [C143] yielded a Kd (Human Nectin-4 [1]) of 0.55 nM and a Kd (Human Nectin-4 [2]) of 0.238 nM.

Work on {Biotin-PEG4″}-CEYDEQFFTALKRLRGADICSYIQASFQYLPGLCIEEILDNLGCS (designed binder, disulfide 1-34, 20-44) [C185] yielded a Kd (Human Nectin-4 [1]) of 1 nM and a Kd (Human Nectin-4 [2]) of 0.371 nM.

{Biotin-PEG4″}-CEYDEEFFTALARLRGGDICQYIQAKFQYLPGQCIEEILDNLGCS (designed binder, disulfide 1-34, 20-44) [C149] showed a Kd (Human Nectin-4 [1]) of 0.75 nM and a Kd (Human Nectin-4 [2]) of 0.297 nM.

— patent publication US20260151519A1 (AKTIS ONCOLOGY, published 2026)
